Data as given in article PMC4109916.

Legend:
[1] = molecular target: Recombinant Protein A (SpA) (staphylococcal (species not stated)) (UniProt P38507); experiment: ELISA; competition: wells coated with mKate-IgGBP or SpA; 1:4000 dIgG-HRP co-incubated with increasing concentrations of unlabeled IgG, 1 hr at room temperature, 3% BSA in PBS-T; IC50 from a one-site LogIC50 fit
[2] = molecular target: Human IgG1 (Avastin, bevacizumab) (human)
[3] = molecular target: Human IgG1 (Avastin, bevacizumab) (human); remark: listed apart in the source
[4] = molecular target: Human IgG1 (Avastin, bevacizumab) (human); experiment: SPR; pH 6
[5] = molecular target: Human IgG1 (Avastin, bevacizumab) (human); experiment: SPR; pH 7.4
[6] = molecular target: hIgG1-TAMRA (labeled human IgG1) (human); experiment: flow cytometry on cells; same competition experiment as a5 (1 µM hIgG1-TAMRA, MDCK hFcRn-EYFP/hβ2m cells, 1 hr at 37°C, pH 6); pair of the soluble competitor mKate-IgGBP with the labeled hIgG1 that it binds
[7] = molecular target: mKate-IgGBP (monomeric Katushka modified at its C-terminus with the IgG-Fc binding peptide); experiment: ELISA; competition: wells coated with mKate-IgGBP or SpA; 1:4000 dIgG-HRP co-incubated with increasing concentrations of unlabeled IgG, 1 hr at room temperature, 3% BSA in PBS-T; IC50 from a one-site LogIC50 fit
[8] = molecular target: human neonatal Fc receptor hFcRn-EYFP/hβ2m on MDCK cells (human) (UniProt P55899); experiment: flow cytometry on cells; competition: MDCK hFcRn-EYFP/hβ2m cells with 1 µM hIgG1-TAMRA and increasing unlabeled competitor, 1 hr at 37°C, pH 6 (HBSS, 1% ovalbumin, 50 mM MES); read-out is % hIgG1 accumulation (binding and FcRn-dependent endocytosis); pairs with the receptor on cells
Sequence of UniProt P55899 (P55899 24-365, chain 1 of 2): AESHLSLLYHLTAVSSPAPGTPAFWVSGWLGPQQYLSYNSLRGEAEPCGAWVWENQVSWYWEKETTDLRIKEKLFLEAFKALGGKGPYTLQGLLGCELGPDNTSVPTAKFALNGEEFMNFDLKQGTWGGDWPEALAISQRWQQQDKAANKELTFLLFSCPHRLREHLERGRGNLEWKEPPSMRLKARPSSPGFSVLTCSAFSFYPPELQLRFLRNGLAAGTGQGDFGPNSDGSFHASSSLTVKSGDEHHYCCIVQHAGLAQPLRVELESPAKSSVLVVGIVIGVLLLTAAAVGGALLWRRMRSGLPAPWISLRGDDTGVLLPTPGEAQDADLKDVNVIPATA
Sequence of UniProt P55899 (P61769 21-119, chain 2 of 2, further chain): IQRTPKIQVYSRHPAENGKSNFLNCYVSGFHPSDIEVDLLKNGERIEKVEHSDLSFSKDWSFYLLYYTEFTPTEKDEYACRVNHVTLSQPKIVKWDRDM

“Human IgG1 (Avastin, bevacizumab) (antibody)” showed an IC50 [1] of 0.022 µM.

Work on “mKate-IgGBP (monomeric Katushka modified at its C-terminus with the IgG-Fc binding peptide) (designed binder)” yielded a plasma half-life of mKate-IgGBP (10 mg/kg i.v.) in hFcRn Tg mice pre-dosed with 500 mg/kg hIgG1 [2] of 8 h, a fold extension of the plasma half-life of mKate-IgGBP co-dosed 1:1 mol with labeled hIgG1 in hFcRn Tg mice, against mKate-IgGBP dosed without hIgG1 [3] of 16 fold and a Kd [4] of 0.019 µM. It also gave a koff [4] of 0.0053 s⁻¹, a kon [4] of 270000 M⁻¹ s⁻¹ and a Kd [5] of 0.04 µM. The koff [5] was 0.0042 s⁻¹, the kon [5] was 110000 M⁻¹ s⁻¹ and the IC50 [6] was 0.7 µM.

Work on “mouse IgG2a (CI.18 isotype control) (antibody)” yielded an IC50 [1] of 0.061 µM.

“mouse IgG2b (MPC-11 isotype control) (antibody)” showed an IC50 [1] of 0.054 µM.

B1: Human IgG1 (Avastin, bevacizumab) (antibody, V domains shown)
VH: EVQLVESGGGLVQPGGSLRLSCAASGYTFTNYGMNWVRQAPGKGLEWVGWINTYTGEPTYAADFKRRFTFSLDTSKSTAYLQMNSLRAEDTAVYYCAKYPHYYGSSHWYFDVWGQGTLVTVSS
VL: DIQMTQSPSSLSASVGDRVTITCSASQDISNYLNWYQQKPGKAPKVLIYFTSSLHSGVPSRFSGSGSGTDFTLTISSLQPEDFATYYCQQYSTVPWTFGQGTKVEIK
Work on B1 yielded an IC50 [7] of 0.0024 µM and an IC50 [8] of 2.8 µM.
